Assays:
Assay in all cases: holdup assay
Parameters in all cases: key: below the threshold = too weak to quantify, mostly under pKd 3.1 to 4
APBA2_1, Q99767 = molecular target: T1, APBA2_1, Q99767
T1 sequence (Q99767 563-664, limits assumed, looked up): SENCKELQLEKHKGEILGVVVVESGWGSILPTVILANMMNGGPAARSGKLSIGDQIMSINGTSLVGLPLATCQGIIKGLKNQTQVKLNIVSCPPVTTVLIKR

APBA2_2, Q99767 = molecular target: T2, APBA2_2, Q99767
T2 sequence (Q99767 654-744, limits assumed, looked up): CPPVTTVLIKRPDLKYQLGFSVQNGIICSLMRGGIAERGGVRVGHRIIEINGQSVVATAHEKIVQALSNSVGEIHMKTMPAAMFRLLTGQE

ARHGEF11, O15085 = molecular target: T3, ARHGEF11, O15085
T3 sequence (O15085 42-136, limits assumed, looked up): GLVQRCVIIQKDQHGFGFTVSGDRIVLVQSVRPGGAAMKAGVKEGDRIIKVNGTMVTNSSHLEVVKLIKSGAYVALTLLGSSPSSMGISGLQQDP

CASK, O14936 = molecular target: CASK, O14936
Chain of CASK, O14936 (O14936 487-570): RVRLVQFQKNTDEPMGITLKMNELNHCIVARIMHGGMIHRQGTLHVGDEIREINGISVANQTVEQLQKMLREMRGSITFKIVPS

DFNB31_1, Q9P202 = molecular target: T4, DFNB31_1, Q9P202
T4 sequence (Q9P202 135-233, limits assumed, looked up): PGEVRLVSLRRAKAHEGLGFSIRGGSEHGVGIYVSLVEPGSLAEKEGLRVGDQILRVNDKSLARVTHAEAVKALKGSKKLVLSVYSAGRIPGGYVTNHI

DLG1_3, Q12959 = molecular target: DLG1_3, Q12959
Chain of DLG1_3, Q12959 (Q12959 457-571): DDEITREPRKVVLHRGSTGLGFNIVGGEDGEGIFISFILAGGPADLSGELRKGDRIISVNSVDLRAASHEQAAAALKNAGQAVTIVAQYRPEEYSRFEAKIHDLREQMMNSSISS

DLG3_3, Q92796 = molecular target: T5, DLG3_3, Q92796
T5 sequence (Q92796 374-475, limits assumed, looked up): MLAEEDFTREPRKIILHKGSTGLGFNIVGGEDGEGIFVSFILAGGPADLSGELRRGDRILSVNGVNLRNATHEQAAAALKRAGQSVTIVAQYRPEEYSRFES

DLG4_1, P78352 = molecular target: DLG4_1, P78352
Chain of DLG4_1, P78352 (P78352 62-152): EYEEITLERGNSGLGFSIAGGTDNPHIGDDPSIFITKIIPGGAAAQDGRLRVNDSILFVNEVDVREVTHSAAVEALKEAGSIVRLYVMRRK

GIPC2, Q8TF65 = molecular target: GIPC2, Q8TF65
Chain of GIPC2, Q8TF65 (Q8TF65 112-203): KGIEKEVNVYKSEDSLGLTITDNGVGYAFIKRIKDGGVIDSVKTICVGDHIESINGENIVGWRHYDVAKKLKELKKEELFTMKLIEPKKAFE

GORASP2, Q9H8Y8 = molecular target: GORASP2, Q9H8Y8
GRID2IP_1, A4D2P6 = molecular target: GRID2IP_1, A4D2P6
Chain of GRID2IP_1, A4D2P6 (A4D2P6 1-87): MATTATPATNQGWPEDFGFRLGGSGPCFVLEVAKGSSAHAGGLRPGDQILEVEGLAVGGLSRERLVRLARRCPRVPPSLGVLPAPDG

GRIP1_2, Q9Y3R0 = molecular target: T6, GRIP1_2, Q9Y3R0
T6 sequence (Q9Y3R0 145-248, limits assumed, looked up): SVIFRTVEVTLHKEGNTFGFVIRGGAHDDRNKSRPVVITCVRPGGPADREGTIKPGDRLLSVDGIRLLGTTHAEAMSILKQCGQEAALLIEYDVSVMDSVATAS

GRIP1_3, Q9Y3R0 = molecular target: T7, GRIP1_3, Q9Y3R0
T7 sequence (Q9Y3R0 247-346, limits assumed, looked up): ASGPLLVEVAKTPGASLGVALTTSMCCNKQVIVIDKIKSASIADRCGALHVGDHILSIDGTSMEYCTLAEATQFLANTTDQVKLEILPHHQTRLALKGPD

GRIP1_7, Q9Y3R0 = molecular target: T8, GRIP1_7, Q9Y3R0
T8 sequence (Q9Y3R0 999-1096, limits assumed, looked up): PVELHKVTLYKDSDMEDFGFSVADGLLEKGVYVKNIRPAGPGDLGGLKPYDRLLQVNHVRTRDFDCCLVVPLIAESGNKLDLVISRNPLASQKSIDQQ

IL16_4, Q14005 = molecular target: IL16_4, Q14005
Chain of IL16_4, Q14005 (Q14005 1229-1329): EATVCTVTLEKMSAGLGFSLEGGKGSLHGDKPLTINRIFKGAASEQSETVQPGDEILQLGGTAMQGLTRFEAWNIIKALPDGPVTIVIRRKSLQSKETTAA

LNX1_3, Q8TBB1 = molecular target: LNX1_3, Q8TBB1
Chain of LNX1_3, Q8TBB1 (Q8TBB1 500-596): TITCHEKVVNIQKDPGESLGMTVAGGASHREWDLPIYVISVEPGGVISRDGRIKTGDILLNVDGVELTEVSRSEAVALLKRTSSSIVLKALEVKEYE

LNX2_3, Q8N448 = molecular target: T9, LNX2_3, Q8N448
T9 sequence (Q8N448 463-564, limits assumed, looked up): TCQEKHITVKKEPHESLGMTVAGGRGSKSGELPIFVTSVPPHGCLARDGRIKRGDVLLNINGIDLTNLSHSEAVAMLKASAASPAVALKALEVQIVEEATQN

MAST2, Q6P0Q8 = molecular target: MAST2, Q6P0Q8
Chain of MAST2, Q6P0Q8 (Q6P0Q8 1099-1202): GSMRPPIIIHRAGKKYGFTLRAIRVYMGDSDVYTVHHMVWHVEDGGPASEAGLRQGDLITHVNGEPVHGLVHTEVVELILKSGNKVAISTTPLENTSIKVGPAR

MPP2, Q14168 = molecular target: T10, MPP2, Q14168
T10 sequence (Q14168 180-250, limits assumed, looked up): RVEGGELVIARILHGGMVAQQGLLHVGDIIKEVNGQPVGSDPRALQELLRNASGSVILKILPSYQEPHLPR

MPP6, Q9NZW5 = molecular target: T11, MPP6, Q9NZW5
T11 sequence (Q9NZW5 125-219, limits assumed, looked up): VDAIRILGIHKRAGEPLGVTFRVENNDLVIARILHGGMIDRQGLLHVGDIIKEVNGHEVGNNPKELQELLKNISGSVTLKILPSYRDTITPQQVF

NHERF3_4, Q5T2W1 = molecular target: T12, NHERF3_4, Q5T2W1
T12 sequence (Q5T2W1 373-468, limits assumed, looked up): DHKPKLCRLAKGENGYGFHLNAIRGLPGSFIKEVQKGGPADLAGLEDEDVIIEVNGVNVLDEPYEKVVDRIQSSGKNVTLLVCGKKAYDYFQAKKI

NOS1, P29475 = molecular target: NOS1, P29475
Chain of NOS1, P29475 (P29475 9-101): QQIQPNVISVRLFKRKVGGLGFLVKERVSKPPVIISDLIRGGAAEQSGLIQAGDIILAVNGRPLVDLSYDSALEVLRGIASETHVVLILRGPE

SNTB1, Q13884 = molecular target: T13, SNTB1, Q13884
T13 sequence (Q13884 107-205, limits assumed, looked up): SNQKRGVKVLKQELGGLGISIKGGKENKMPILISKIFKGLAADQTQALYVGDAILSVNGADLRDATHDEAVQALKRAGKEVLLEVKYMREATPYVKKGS

TJP1_3, Q07157 = molecular target: TJP1_3, Q07157
Chain of TJP1_3, Q07157 (Q07157 416-512): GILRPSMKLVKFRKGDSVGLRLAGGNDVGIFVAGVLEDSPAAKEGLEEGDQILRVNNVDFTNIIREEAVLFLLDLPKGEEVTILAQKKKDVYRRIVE

[1] = plain residues with an end cap or a label only (N-terminal biotin on a linker: ahx)
[2] = plain residues with an end cap or a label only (N-terminal biotin on a linker: ado-ado)

Measured: pKd

APSRKLNTEI [TIAM1, Q13009]
3.55: DFNB31_1, Q9P202; [1]
below the threshold: APBA2_1, Q99767; [1] | APBA2_2, Q99767; [1] | ARHGEF11, O15085; [1] | CASK, O14936; [1] | DLG1_3, Q12959; [1] | DLG3_3, Q92796; [1] | DLG4_1, P78352; [1] | GIPC2, Q8TF65; [1] | GORASP2, Q9H8Y8; [1] | GRID2IP_1, A4D2P6; [1] | GRIP1_2, Q9Y3R0; [1] | GRIP1_3, Q9Y3R0; [1] | GRIP1_7, Q9Y3R0; [1] | IL16_4, Q14005; [1] | LNX1_3, Q8TBB1; [1] | LNX2_3, Q8N448; [1] | MAST2, Q6P0Q8; [1] | MPP2, Q14168; [1] | MPP6, Q9NZW5; [1] | NHERF3_4, Q5T2W1; [1] | NOS1, P29475; [1] | SNTB1, Q13884; [1] | TJP1_3, Q07157; [1]

QSYPSKHDYV [CLDN18, P56856]
3.57: APBA2_1, Q99767; [2]
3.81: ARHGEF11, O15085; [2]
3.87: MAST2, Q6P0Q8; [2]
3.48: NHERF3_4, Q5T2W1; [2]
3.67: DLG4_1, P78352; [2]
3.49: DFNB31_1, Q9P202; [2] | DLG1_3, Q12959; [2]
3.62: APBA2_2, Q99767; [2]
4.13: GORASP2, Q9H8Y8; [2]
3.58: GRIP1_2, Q9Y3R0; [2]
3.74: LNX1_3, Q8TBB1; [2]
below the threshold: CASK, O14936; [2] | DLG3_3, Q92796; [2] | GIPC2, Q8TF65; [2] | GRID2IP_1, A4D2P6; [2] | GRIP1_3, Q9Y3R0; [2] | GRIP1_7, Q9Y3R0; [2] | LNX2_3, Q8N448; [2] | MPP2, Q14168; [2] | MPP6, Q9NZW5; [2] | SNTB1, Q13884; [2] | TJP1_3, Q07157; [2]
3.78: IL16_4, Q14005; [2]
4.29: NOS1, P29475; [2]

TESNLQTSSC [CGN, Q9P2M7]
below the threshold: APBA2_1, Q99767; [1] | APBA2_2, Q99767; [1] | ARHGEF11, O15085; [1] | CASK, O14936; [1] | DFNB31_1, Q9P202; [1] | DLG1_3, Q12959; [1] | DLG3_3, Q92796; [1] | DLG4_1, P78352; [1] | GORASP2, Q9H8Y8; [1] | GRID2IP_1, A4D2P6; [1] | GRIP1_2, Q9Y3R0; [1] | GRIP1_3, Q9Y3R0; [1] | GRIP1_7, Q9Y3R0; [1] | IL16_4, Q14005; [1] | LNX1_3, Q8TBB1; [1] | LNX2_3, Q8N448; [1] | MAST2, Q6P0Q8; [1] | MPP2, Q14168; [1] | MPP6, Q9NZW5; [1] | NHERF3_4, Q5T2W1; [1] | NOS1, P29475; [1] | SNTB1, Q13884; [1] | TJP1_3, Q07157; [1]
3.78: GIPC2, Q8TF65; [1]

REEPDHSTEV [CCRL2, O00421]
4.01: GIPC2, Q8TF65; [2]
4.36: SNTB1, Q13884; [2]
3.48: GORASP2, Q9H8Y8; [2] | TJP1_3, Q07157; [2]
3.5: GRIP1_2, Q9Y3R0; [2]
4.03: DFNB31_1, Q9P202; [2]
4.71: DLG4_1, P78352; [2]
3.6: DLG3_3, Q92796; [2]
5.3: MAST2, Q6P0Q8; [2]
below the threshold: APBA2_1, Q99767; [2] | APBA2_2, Q99767; [2] | CASK, O14936; [2] | DLG1_3, Q12959; [2] | GRID2IP_1, A4D2P6; [2] | GRIP1_3, Q9Y3R0; [2] | IL16_4, Q14005; [2] | LNX1_3, Q8TBB1; [2] | LNX2_3, Q8N448; [2] | MPP2, Q14168; [2] | MPP6, Q9NZW5; [2] | NHERF3_4, Q5T2W1; [2] | NOS1, P29475; [2]
4.77: ARHGEF11, O15085; [2]
3.56: GRIP1_7, Q9Y3R0; [2]

DGVNEKVSCV [HTR2A, P28223]
4.18: ARHGEF11, O15085; [2]
4.72: SNTB1, Q13884; [2]
3.69: DLG4_1, P78352; [2] | NOS1, P29475; [2]
3.74: GORASP2, Q9H8Y8; [2]
3.56: IL16_4, Q14005; [2]
4.52: MAST2, Q6P0Q8; [2]
below the threshold: APBA2_1, Q99767; [2] | APBA2_2, Q99767; [2] | CASK, O14936; [2] | DFNB31_1, Q9P202; [2] | DLG1_3, Q12959; [2] | DLG3_3, Q92796; [2] | GIPC2, Q8TF65; [2] | GRID2IP_1, A4D2P6; [2] | GRIP1_2, Q9Y3R0; [2] | GRIP1_3, Q9Y3R0; [2] | GRIP1_7, Q9Y3R0; [2] | LNX1_3, Q8TBB1; [2] | LNX2_3, Q8N448; [2] | MPP2, Q14168; [2] | MPP6, Q9NZW5; [2] | NHERF3_4, Q5T2W1; [2] | TJP1_3, Q07157; [2]

EPQYQPGENL [SRC, P12931]
below the threshold: APBA2_1, Q99767; [2] | APBA2_2, Q99767; [2] | ARHGEF11, O15085; [2] | CASK, O14936; [2] | DFNB31_1, Q9P202; [2] | DLG1_3, Q12959; [2] | DLG3_3, Q92796; [2] | DLG4_1, P78352; [2] | GIPC2, Q8TF65; [2] | GORASP2, Q9H8Y8; [2] | GRID2IP_1, A4D2P6; [2] | GRIP1_2, Q9Y3R0; [2] | GRIP1_3, Q9Y3R0; [2] | GRIP1_7, Q9Y3R0; [2] | LNX1_3, Q8TBB1; [2] | LNX2_3, Q8N448; [2] | MAST2, Q6P0Q8; [2] | MPP2, Q14168; [2] | MPP6, Q9NZW5; [2] | NHERF3_4, Q5T2W1; [2] | NOS1, P29475; [2] | TJP1_3, Q07157; [2]
3.5: IL16_4, Q14005; [2]
3.58: SNTB1, Q13884; [2]
